Laboratory results taken from patent US8147817B2, “IL-33 in the treatment and diagnosis of diseases and disorders” (The Brigham and Women's Hospital, Inc., priority 2006, dated 2012).
Entries after “also recorded” stand apart in the source; their conditions may differ. Where two headings read alike, the source gives them in different places.

Experiments:
[1] = system: NF-κB; test: NF-κB nuclear binding activity by EMSA in cardiac fibroblasts; format: cell-based, rat; conditions: angiotensin-II 1 μM, phenylephrine 50 μM, IL-33 10 ng/ml
Experimental: Electromobility shift assays were performed as described previously (8). Cells were lysed for 10 minutes on ice in a solution containing 10 mM HEPES (pH 7.6), 15 mM KCl, 2 mM MgCl2, 0.1 mM ethylenediamine tetraacetic acid (EDTA), 1 mM dithiothreitol (DTT), 0.5 mM phenylmethylsulphonylfluoride (PMSF), 10 μg/mL leupeptin and 0.2% Nonident P-40. Dishes were gently scraped, and nuclei were collected by centrifugation at 800 g for 30 seconds and then suspended in a solution of 50 mM HEPES, 400 mM KCl, 0.1 mM EDTA, 10% glycerol, 1 mM DTT, 0.5 mM PMSF and 10 μg/mL leupeptin. The mixture was incubated on ice for 30 minutes, and the supernatant was collected after centrifugation for 15 minutes at 400 g. Binding reactions were performed with 5 or 10 μg of nuclear protein in 10 mM Tris, 1 mM DTT, 1 mM EDTA, 5% glycerol, 0.1% Triton X-100, 1 mg poly(dIdC), 5 μg bovine serum albumin (BSA) and approximately 10,000 cpm of −32P-labeled oligonucleotide. The binding reactions for AP-1 activity also contained 5 mM MgCl2. Control reaction mixtures contained a 100-fold excess of unlabeled oligonucleotide and were incubated with nuclear extracts of IL-1β-treated cells. DNA complexes were separated on a 4% nondenaturing polyacrylamide gel in Tris-HCl (6.7 mM), EDTA (1 mM) and ammonium acetate (3.3 mM). The oligonucleotides contained the NF-B binding site (sequence: 5′-AGTTGAGGGGACTTTCCCAGGC-3′ (SEQ ID NO: 15)) and were labeled by standard procedures.
EMSAs were performed as described previously (47). Cells were lysed for 10 minutes on ice in 10 mM HEPES (pH 7.6), 15 mM KCl, 2 mM MgCl2, 0.1 mM EDTA, 1 mM DTT, 0.5 mM PMSF, 10 μg/mL leupeptin, and 0.2% Nonident P-40. Dishes were gently scraped, and nuclei were collected by centrifugation at 800 g for 30 seconds and then suspended in a solution of 50 mM HEPES, 400 mM KCl, 0.1 mM EDTA, 10% glycerol, 1 mM DTT, 0.5 mM PMSF, and 10 μg/mL leupeptin. The mixture was incubated on ice for 30 minutes, and the supernatant was collected after centrifugation for 15 minutes at 400 g. […]

[2] = system: MAP kinases and Akt; test: Western analysis for MAP kinases and Akt in cardiomyocytes; format: cell-based, rat
Experimental: Phosphorylation of MAP kinases and Akt were detected by Western analysis as previously described (5). Membranes were incubated with primary antibodies overnight (phospho ERK1/2 diluted 1:1000; phospho SAPK/JNK diluted 1:500; phospho p38 MAPK diluted 1:500; phospho Akt (Ser473) diluted 1:1000). All antibodies were from Cell Signaling Technology, Inc. (Danvers, Mass.) and were sequentially detected with horseradish peroxidase-conjugated goat anti-rabbit IgG and enhanced chemiluminescence.
(§1) Western analyses were performed as described previously (45). Membranes were incubated with primary antibodies overnight (anti-p44/42MAPK diluted 1:500; phospho-p44/42MAPK (Thr202/Tyr204) 1:1000; phospho-JNK (Thr183/Tyr185) 1:500; p38MAPK 1:500; phospho-p38MAPK (Thr180/Tyr182) 1:500; phospho-Akt (Ser473) 1:1000 and phospho-IκBα 1:1000, all from Cell Signaling, anti-mouse ST2L, from R&D 1:1000 and anti-IL-33 as described above, 1:500) at 4° C., detected with horseradish peroxidase-conjugated antibodies and enhanced chemiluminescence.

[3] = system: IκBα; test: IκBα phosphorylation by Western analysis in cardiomyocytes; format: cell-based, rat
Experimental: as §1

[4] = system: rat neonatal cardiomyocytes; test: [3H]-leucine incorporation assay (hypertrophy); format: cell-based
Experimental: Leucine incorporation in rat neonatal cardiomyocytes was detected as previously described (7). Cells were pre-incubated with 1.0 μCi/mL [^3H]leucine for 24 hours. The medium was aspirated, and the cells were washed twice with ice-cold PBS and once with 10% trichloroacetic acid (TCA; Sigma) and fixed for 45 minutes at 4° C. with 10% TCA. After washing twice with cold 95% ethanol, radioactivity incorporated into the TCA-precipitable material was determined by liquid scintillation counting after solubilization in 0.15N NaOH.
Leucine incorporation in rat neonatal cardiomyocytes was detected as previously described (46). Cells were treated with 1.0 μCi/ml [^3H]-leucine for 24 hours, washed, fixed with 10% trichloroacetate (Sigma) for 45 minutes at 4° C., and then radioactivity was determined by liquid scintillation counting. An anti-mouse ST2 antibody (R&D) was used as a functional neutralizing antibody (12). A normal rat IgG2a (Sigma) and mouse IL-1Rrp2 (R&D) were used as controls for anti-mouse ST2 antibody (R&D) and mouse soluble ST2 (R&D), respectively.

[5] = system: WT and ST2−/− mice after TAC; conditions: for induction of ANP and BNP gene expression after TAC: left ventricle 1 week after operation;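 on all read-outs here: ST2−/− mice and WT littermates, 8-10 weeks old at the time of TAC surgery where applicable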
Experimental: Targeted ST2 ablated mice and their wild-type littermates were employed for the experiment simultaneously. TAC was produced as described previously (11-13) on 8-10 week old mice. Some mice underwent daily intraperitoneal (i.p.) injection of IL-33 (2 μg suspended in 100 microliters of PBS with 0.2% bovine serum albumin) or vehicle beginning from the day after TAC operation to the day of harvest.
Formalin-fixed, paraffin-embedded sections were prepared as previously described (42). For immunohistochemistry, the first antibodies used were anti-cleaved caspase-3 (Cell Signaling Technology) and anti-mac3 (BD Biosciences, San Jose, Calif.). For TUNEL analysis, the In Situ apoptosis detection kit (Chemicon, Temecula, Calif.) was used along with the manufacturer's protocol with some optimal modifications on the treatment periods.
Targeted ST2−/− mice and their WT littermates were employed for the experiments. TAC was produced as described previously (49, 50) on 8-10 week old mice. All operative procedures were performed by a single operator with over 20 years rodent cardiac surgery experience who was blinded to genotype and the randomized treatment assignment. Following the procedure, each mouse received daily i.p. injection of recombinant rat IL-33 (2 μg) or vehicle from the day after TAC operation until the day of harvest.
Echocardiographic acquisition and analysis were performed by an echocardiographer blinded to treatment group. […] All images were taken at a heart rate greater than 400 beats per minute to minimize effects of anesthesia, using a Sonos-4500 (Philips) and a 15-MHz transducer. Three consecutive cardiac cycles were averaged. Left ventricular mass was calculated by the M-mode method (51). Left ventricular fractional shortening was calculated as (EDD−ESD)/EDD×100%, where EDD is end-diastolic dimension and ESD is end-systolic dimension.
A planimetry image analysis program was used by an investigator blinded to treatment group to quantitate the 30 high power field regions randomly selected in each slice with Hematoxylin-eosin stain (for cross-sectional area) or Sirius-red stain (for fibrotic area). Cross sectional area of cardiomyocytes was measured as described previously (52). Fibrotic area was calculated as (red area/total area)×100%. The scores from all slices were averaged to calculate their respective values.

[6] = ST2−/− mice, 4 weeks after operation
[7] = WT mice surviving 8 weeks after TAC
[8] = WT mice, IL-33 2 μg/day i.p. for 4 weeks

B1: IL-33: recombinant mature rat IL-33, starting with amino acid 109 of the full-length protein, N-terminal His tag (GenBank BC081993) (protein)
chain: SIQGTSLLTESCALSTYNDQSVSFVLENGCYVINVEDCGKNQEKDKVLLRYYESSFPAQSGDGVDGKKLMVNMSPIKDTDIWLNANDKDYSVELQKGDVSPPDQAFFVLHKKSSDFVSFECKNLPGTYIGVKDNQLALVEENDESCNNIMFKLSKM
modifications: left off: small tags and cut ends
[1]
  NF-κB activation by agent alone: independently activated NF-κB in both cell types
[2]; IL-33 (10 ng/ml) alone
  phosphorylation of ERK, p38 and JNK MAP kinases: increased phosphorylation of ERK, p38 and JNK MAP kinases; also recorded: generally modest compared with IL-1β; also recorded: activated all MAP kinases
[2]; IL-33 alone
  Akt activation: minimally activated Akt
[2]; co-treatment with IL-33
  angiotensin-II-induced Akt activation: did not impair angiotensin-II-induced Akt activation
  angiotensin-II-induced ERK phosphorylation: did not affect ERK phosphorylation
  angiotensin-II-induced JNK phosphorylation: decreased
  angiotensin-II-induced p38MAPK phosphorylation: decreased
[3]; PDGF-BB (10 ng/ml) or TNF-α (10 ng/ml), IL-33 10 ng/ml
  reduction of IκBα phosphorylation induced by PDGF-BB or TNF-α: not observed; also recorded: did not block IκBα phosphorylation
[3]; cardiomyocytes
  IκBα phosphorylation by agent alone: induced IκBα phosphorylation in both cell types
[3]; cardiomyocytes, co-treatment with IL-33
  IκB phosphorylation under hypertrophic stimulus: reduced IκB phosphorylation in cardiomyocytes
[4]; co-treatment with IL-33
  hypertrophy (leucine uptake) induced by angiotensin-II or phenylephrine: can block cardiac hypertrophy; also recorded: potently blocked cardiomyocyte hypertrophy; also recorded: abrogates angiotensin-II- and phenylephrine-induced hypertrophy in cardiomyocytes in vitro; also recorded: blocks hypertrophy induced by angiotensin II; also recorded: dose dependent ability to decrease hypertrophy induced by angiotensin II and phenylephrine; also recorded: can antagonize hypertrophic effects of angiotensin II and phenylephrine; also recorded: blocked angiotensin-II or phenylephrine-induced leucine uptake in a dose-dependent manner
[4]; no other stimulus
  hypertrophy (leucine uptake), IL-33 alone: modest, dose-dependent pro-hypertrophic trend that was not statistically significant; also recorded: modest hypertrophic effect; also recorded: non-significant trend toward stimulating hypertrophy
[5]; 4 weeks after operation
  percentage of TUNEL positive nuclei in myocardium: not changed; also recorded: did not affect TUNEL positivity
[5]; ST2−/− mice
  Gross Heart/Body Weight after TAC: not in ST2−/− mice
  induction of ANP and BNP gene expression after TAC: not in ST2−/− mice
[5]; ST2−/− mice, 1 week after operation
  NF-κB nuclear binding activity in left ventricular myocardium: not in ST2−/− mice; also recorded: modest increase in NF-κB binding
[5]; [6]
  hypertrophy by echocardiography after TAC: not in ST2−/− littermates
  increased left ventricular dilation and reduced fractional shortening after TAC: not reversed
[5]; WT mice
  Gross Heart/Body Weight after TAC: antihypertrophic effect of IL-33 in WT mice
  survival after TAC: significantly improved survival in WT mice after TAC; also recorded: improved pathological changes and survival in WT mice
  induction of ANP and BNP gene expression after TAC: markedly attenuated induction of both genes in WT; also recorded: effectively reversed the induction of these hypertrophic genes in WT mice with TAC; also recorded: reversed these changes only in WT mice
[5]; [7]
  fractional shortening (echocardiography): increased fractional shortening
  left ventricular wall thickness (echocardiography): reduced wall thickness
[5]; WT mice, 1 week after operation
  NF-κB nuclear binding activity in left ventricular myocardium after TAC: inhibited NF-κB induction only in WT mice; also recorded: reversed these changes only in WT mice
[5]; WT mice, 1 week, co-treatment with IL-33
  macrophage infiltration in myocardium after TAC: decreased by co-treatment with IL-33; also recorded: reduced macrophage infiltration after TAC only in WT mice
[5]; WT mice, 4 weeks after operation
  hypertrophy by echocardiography after TAC: reduced hypertrophy only in WT mice
[5]; [8]
  cardiac fibrosis (Sirius-red) after TAC: reduced cardiac fibrosis; also recorded: significantly improved these changes in WT mice
  cardiomyocyte hypertrophy (cross-sectional area) after TAC: reduced cardiac fibrosis and cardiomyocyte hypertrophy; also recorded: significantly improved these changes in WT mice
[5]; WT or ST2−/− mice without TAC, 1 week of treatment
  macrophage infiltration in myocardium, IL-33 alone: did not significantly increase macrophage infiltration; also recorded: not observed; also recorded: did not induce macrophage infiltration
[5]; no TAC
  echocardiographic parameters under non-stress conditions: no significant change
